In publication PMC4449314:
Like-named read-outs stand apart in the source and are kept apart here. Each block holds one substance with its values, some of them ahead of it.

What was measured:
Test in all cases: non-reducing SDS-PAGE of disulfide-linked products after anti-HA IP
[1] = target: HA-tagged human DAP12 threonine-to-alanine mutant (human)
[2] = target: HA-tagged human DAP12 aspartic acid-to-glutamine mutant (human)
[3] = target: HA-tagged human DAP12 aspartic acid-to-glutamic acid mutant (human)
[4] = target: HA-tagged human DAP12 aspartic acid-to-asparagine mutant (human)
[5] = target: HA-tagged human DAP12 aspartic acid-to-asparagine mutant (human); remark: listed apart in the source
[6] = target: HA-tagged human DAP12 aspartic acid-to-alanine mutant (human)

Substance: HA-tagged human DAP12 threonine-to-alanine mutant (natural protein)
fold decrease of trimer compared to WT [1]: 5 fold
fold increase of tetramer compared to WT [1]: 2 fold
stoichiometry N [1]: 2

Substance: HA-tagged human DAP12 aspartic acid-to-asparagine mutant (natural protein)
stoichiometry N [4]: 2
stoichiometry N [5]: 3

Substance: HA-tagged human DAP12 aspartic acid-to-alanine mutant (natural protein)
fold reduction of tetramer compared to WT [6]: 2 fold
fold reduction of trimer compared to WT [6]: 10 fold
stoichiometry N [6]: 2

Other lines, results leading:

stoichiometry N [2]: 2
Substance: HA-tagged human DAP12 aspartic acid-to-glutamine mutant (natural protein)

stoichiometry N [3]: 2
Substance: HA-tagged human DAP12 aspartic acid-to-glutamic acid mutant (natural protein)
